Tested on: FopA (Salmonella enterica serovar Typhimurium SL1344 (plasmid pCol1B9))
Assay: EMSA

Row | Substance | Kd
1 | Inc RNA | 1000 nM
2 | Inc-repZ complex | 1000 nM
3 | repZ 5'UTR fragment | 1000 nM

— PMC7491321
